According to PMC10850085 (Nature Communications, 2024):

B1: murine TpoR ectodomain, monomeric (TpoR_(1-479)) [modified: N-linked glycans at N117, N178, N349; tryptophan mannosylation (W465, W468); N-linked glycans at N117, N178, N349; tryptophan mannosylation (W465, W468)] [mouse] / peptide version … (parent complex)
chain 1: QDVFLLALGTEPLNCFSQTFEDLTCFWDEEEAAPSGTYQLLYAYRGEKPRACPLYSQSVPTFGTRYVCQFPAQDEVRLFFPLHLWVKNVSLNQTLIQRVLFVDSVGLPAPPRVIKARGGSQPGELQIHWEAPAPEISDFLRHELRYGPTDSSNATAPSVIQLLSTETCCPTLWMPNPVPVLDQPPCVHPTASQPHGPAPFLTVKGGSCLVSGLQAGKSYWLQLRSQPDGVSLRGSWGPWSFPVTVDLPGDAVTIGLQCFTLDLKMVTCQWQQQDRTSSQGFFRHSRTRCCPTDRDPTWEKCEEEEPRPGSQPALVSRCHFKSRNDSVIHILVEVTTAQGAVHSYLGSPFWIHQAVLLPTPSLHWREVSSGRLELEWQHQSSWAAQETCYQLRYTGEGREDWKVLEPSLGARGGTLELRPRARYSLQLRARLNGPTYQGPWSAWSPPARVSTGSE
chain 2: IEGPTLRQWLAARAGGIEGPTLRQWLAARA
B2: monomeric version of the romiplostim peptide [modified: N-terminal biotin moiety; N-terminal biotin moiety] / murine TpoR ectodomain, monomeric (TpoR_(1-479)) [modified: N-linked glycans at N117, N178, N349; tryptophan mannosylation (W465, … (parent complex)
chain 1: IEGPTLRQWLAARA
chain 2: B1 chain 1

Variants of: B1
Assay: SPR; peak response of the last (highest concentration) injection over immobilised romiplostim peptide; concentration not stated for this panel; read off a plot

Row | Variant | response [RU]
1 | chain 1 F80A | ~220

Variants of: B2
Assay: SPR; peak response of the last injection (100 nM TpoR, top concentration of a two-fold dilution series) over immobilised peptide; read off a plot

Row | Variant | response [RU]
2 | chain 1 A12L | ~36
